Data taken from patent US20250147051A1, “METHOD FOR DETECTING A TAU PROTEIN IN A SALIVA SAMPLE” (GTINVENT LIMITED, priority 2022, published 2025).

How the values were obtained:
[1] = molecular target: full length human tau protein 2N4R (hT40) (human) (UniProt P10636); test: Simoa 3-step sandwich, S1D12 capture beads, biotinylated BT2 detector, recombinant hTau40 standard curve; fifth of 8 cells of a shifted row
[2] = molecular target: full length human tau protein 2N4R (hT40) (human) (UniProt P10636); test: Simoa 3-step sandwich, S1D12 capture beads, biotinylated HT7 detector, recombinant hTau40 standard curve; fourth of 8 cells of a shifted row
[3] = molecular target: full length human tau protein 2N4R (hT40) (human) (UniProt P10636); test: Simoa 3-step sandwich, BT2 capture beads, biotinylated HT7 detector, recombinant hTau40 standard curve; sixth of 8 cells of a shifted row
[4] = molecular target: full length human tau protein 2N4R (hT40) (human) (UniProt P10636); test: Simoa 3-step sandwich, S1D12 capture beads, biotinylated Tau12 detector, recombinant hTau40 standard curve; third of 8 cells of a shifted row
[5] = molecular target: full length human tau protein 2N4R (hT40) (human) (UniProt P10636); test: Simoa, Tau12 on beads, biotinylated HT7 detector
[6] = molecular target: full length human tau protein 2N4R (hT40) (human) (UniProt P10636); test: Simoa 3-step sandwich, BT2 capture beads, biotinylated Tau12 detector, recombinant hTau40 standard curve; first of 8 cells of a shifted row, read in the order of the assay heads
[7] = molecular target: full length human tau protein 2N4R (hT40) (human) (UniProt P10636); test: Simoa 3-step sandwich, S1D12 capture beads, biotinylated Tau46 detector, recombinant hTau40 standard curve; seventh of 8 cells of a shifted row

Sequence of full length human tau protein 2N4R (hT40) (human) (P10636 other isoform, or with tags, fused parts or gaps limits assumed): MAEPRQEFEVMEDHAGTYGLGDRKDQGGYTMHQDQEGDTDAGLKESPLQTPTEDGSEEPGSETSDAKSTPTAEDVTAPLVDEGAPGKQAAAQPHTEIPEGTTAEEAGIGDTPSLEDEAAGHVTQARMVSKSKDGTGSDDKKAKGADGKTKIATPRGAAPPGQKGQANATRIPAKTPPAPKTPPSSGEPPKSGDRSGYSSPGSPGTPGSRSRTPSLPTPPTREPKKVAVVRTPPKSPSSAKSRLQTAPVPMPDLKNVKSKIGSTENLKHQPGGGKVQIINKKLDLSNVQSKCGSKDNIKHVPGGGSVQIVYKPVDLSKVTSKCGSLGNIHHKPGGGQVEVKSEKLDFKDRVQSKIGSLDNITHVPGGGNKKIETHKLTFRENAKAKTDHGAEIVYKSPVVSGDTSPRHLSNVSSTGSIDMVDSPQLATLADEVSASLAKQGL

## BT2 (antibody)
[1]
  Assay limit of detection: 10.8 pg/mL

## HT7 (antibody)
[2]
  Assay limit of detection: 0.25 pg/mL
[3]
  Assay limit of detection: 0.25 pg/mL

## Tau12 mAb (antibody)
[4]
  Assay limit of detection: 0.25 pg/mL
[5]
  Simoa limit of detection: 2.2 pg/mL
[6]
  Assay limit of detection: 0.25 pg/mL

## Tau46 (antibody)
[7]
  Assay limit of detection: 2.2 pg/mL
